Data from patent publication US7070974B1, “Metalloproteases of the neprilysin family” (Universite de Montreal, priority 1999, dated 2006).
Starred links: 1 amine or outer side, 2 acyl side, 3 side chain; linkers in the order of their positions; H or OH if unused. Non-standard residues stand in square brackets, D forms with d. No end group written: not given here. Tyr(3,5-3H) = [3H]c1cc(C[C@H](N[*:1])C(=O)[*:2])cc([3H])c1O[*:3]

Columns and labels:
Type in all cases: biochemical
[1] = molecular target: T1, sNEP (engineered soluble form of NEP) (Oryctolagus cuniculus, UniProt P08049); assay: sNEP enzymatic activity assay with (Tyrosyl-[3,5-3H])(D-Ala2)-Leu5-enkephalin as substrate; conditions: substrate of sNEP; isotope-dilution method
T1 construct: Fusion of a cleavable signal peptide to the ectodomain of neutral endopeptidase; cleavable signal peptide of proopiomelanocortin (replaces cytosolic and transmembrane domains) (N, cleaved yes); made in house; host or cells: LLC-PK1 cells transfected with pRcCMV-sNEP; concentrated culture medium
T1 sequence (P08049 52-750 limits assumed): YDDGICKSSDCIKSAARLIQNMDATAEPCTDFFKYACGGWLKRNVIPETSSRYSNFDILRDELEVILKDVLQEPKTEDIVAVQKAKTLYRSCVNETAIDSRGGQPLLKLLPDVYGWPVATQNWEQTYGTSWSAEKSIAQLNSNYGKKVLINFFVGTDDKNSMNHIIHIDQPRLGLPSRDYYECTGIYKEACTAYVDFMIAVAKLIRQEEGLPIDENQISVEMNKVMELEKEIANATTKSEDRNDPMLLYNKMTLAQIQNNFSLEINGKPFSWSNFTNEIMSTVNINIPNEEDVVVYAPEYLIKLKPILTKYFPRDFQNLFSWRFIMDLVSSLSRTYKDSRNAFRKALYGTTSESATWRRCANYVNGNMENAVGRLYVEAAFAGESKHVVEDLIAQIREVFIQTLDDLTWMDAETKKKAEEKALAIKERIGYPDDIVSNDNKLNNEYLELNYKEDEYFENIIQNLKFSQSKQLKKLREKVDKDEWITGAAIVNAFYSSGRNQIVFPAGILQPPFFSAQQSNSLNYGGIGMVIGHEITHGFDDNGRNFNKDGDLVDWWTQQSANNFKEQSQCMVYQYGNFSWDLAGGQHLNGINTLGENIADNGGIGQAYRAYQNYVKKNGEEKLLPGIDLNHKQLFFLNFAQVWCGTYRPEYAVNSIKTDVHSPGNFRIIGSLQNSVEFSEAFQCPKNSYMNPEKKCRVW

NL1 = molecular target: T2, NL1 (Mus musculus, UniProt Q9JLI3); assay: NL-1 enzymatic activity assay with (Tyrosyl-[3,5-3H])(D-Ala2)-Leu5-enkephalin as substrate; design: The soluble form of NL-1 was assayed for activity; made in house; host or cells: CHO cells (section 1, pcDNA3-RSV) and HEK 293 cells (section 2, pCDNA3/RSV)
T2 sequence (Q9JLI3 63-765 limits assumed): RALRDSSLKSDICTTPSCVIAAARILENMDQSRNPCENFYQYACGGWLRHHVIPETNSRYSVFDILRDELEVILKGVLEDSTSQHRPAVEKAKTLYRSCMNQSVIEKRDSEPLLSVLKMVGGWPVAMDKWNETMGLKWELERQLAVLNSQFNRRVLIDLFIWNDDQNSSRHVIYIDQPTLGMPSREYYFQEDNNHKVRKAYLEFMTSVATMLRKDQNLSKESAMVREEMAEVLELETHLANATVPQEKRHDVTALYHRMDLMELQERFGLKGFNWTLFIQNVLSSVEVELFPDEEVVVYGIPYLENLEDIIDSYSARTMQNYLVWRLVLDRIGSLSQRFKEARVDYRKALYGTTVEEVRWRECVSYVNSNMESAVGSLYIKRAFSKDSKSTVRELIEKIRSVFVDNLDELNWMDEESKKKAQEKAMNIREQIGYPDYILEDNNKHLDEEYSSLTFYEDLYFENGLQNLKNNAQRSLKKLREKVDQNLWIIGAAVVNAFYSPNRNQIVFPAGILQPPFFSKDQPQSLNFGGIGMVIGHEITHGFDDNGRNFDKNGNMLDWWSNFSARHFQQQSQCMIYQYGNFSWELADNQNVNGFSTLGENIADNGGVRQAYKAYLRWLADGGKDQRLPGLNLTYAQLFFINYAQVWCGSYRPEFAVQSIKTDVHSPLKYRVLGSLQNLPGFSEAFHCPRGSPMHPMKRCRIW
Method: (§1) Extracts of cellular proteins and culture media were assayed for enzymatic activity. Two tests were performed. The first used [^3H]-Tyr-(D)Ala2-Leu-enkephalin as substrate and was performed according to Lemay et al., (1989). The second used bradykinin as substrate and was performed as described by Raut et al. (1999).
NL1 activity was monitored and compared to sNEP activity using (Tyrosyl-[3,5-^3H])(D-Ala2)-Leu5-enkephalin (50 Ci/mmol) (Research Products International Inc.), as already described (Dion 1995; Devault 1988). Km values were determined by the isotope-dilution method.

soluble form of NL-3 = molecular target: T3, soluble form of NL-3 (Homo sapiens, UniProt O95672); assay: Soluble NL-3 activity assay with [3H]-Tyr-(D)Ala2-Leu-enkephalin as substrate; conditions: soluble NL-3 from the NL-1 amino-terminal fusion
T3 construct: the ectodomain of NL-3 (from the third cysteine to the end) was spliced to NL-1 amino-terminal domain; mouse NL-1 amino-terminal domain (initiator methionine to the furin site) (N); made in house; host or cells: COS-1 and HEK 293 cells transfected with pRcCMV; spent culture medium
T3 sequence (O95672 83-775 limits assumed): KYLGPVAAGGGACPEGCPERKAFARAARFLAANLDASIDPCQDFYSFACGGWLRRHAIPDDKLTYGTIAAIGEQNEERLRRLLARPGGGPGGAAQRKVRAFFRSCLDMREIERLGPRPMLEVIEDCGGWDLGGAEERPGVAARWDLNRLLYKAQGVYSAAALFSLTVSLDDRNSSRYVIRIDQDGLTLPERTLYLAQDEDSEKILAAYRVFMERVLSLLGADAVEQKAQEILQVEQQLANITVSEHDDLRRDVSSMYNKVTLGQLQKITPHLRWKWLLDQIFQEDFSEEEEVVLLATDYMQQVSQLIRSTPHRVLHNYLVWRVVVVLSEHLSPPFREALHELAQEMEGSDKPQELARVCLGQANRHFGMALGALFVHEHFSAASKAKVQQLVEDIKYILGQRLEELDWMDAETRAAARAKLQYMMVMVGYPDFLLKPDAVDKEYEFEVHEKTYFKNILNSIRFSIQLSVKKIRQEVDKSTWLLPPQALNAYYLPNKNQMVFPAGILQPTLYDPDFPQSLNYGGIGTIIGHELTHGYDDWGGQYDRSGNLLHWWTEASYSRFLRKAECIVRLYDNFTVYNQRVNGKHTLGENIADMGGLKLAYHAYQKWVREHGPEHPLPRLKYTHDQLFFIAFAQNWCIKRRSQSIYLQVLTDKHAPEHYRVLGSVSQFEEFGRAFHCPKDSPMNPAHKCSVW
Method: as §1
The observation that NL-1 ectodomain was secreted, possibly through cleavage of the transmembrane segment by furin, raised the possibility to promote secretion of exogenous proteins that could be spliced to NL-1 amino-terminal domain (from initiator methionine to the furin site). To test this hypothesis, the ectodomain of NL-3 (from the third cysteine to the end) was spliced to NL-1 amino-terminal domain using a PCR strategy and the recombinant DNA cloned in expression vector pRcCMV. The fusion protein was expressed by transfection of the vector in COS-1 and HEK 293 cells. The culture media of transfected cells was analyzed by immunoblotting using the mouse antiserum against NL-3.

With “(Tyrosyl-[3,5-^3H])(D-Ala2)-Leu5-enkephalin ([Tyr(3,5-3H)][dA]GFL) [D-Ala2-Leu5-enkephalin]” the Km [1] was 73 µM, the “Km value of NL1 relative to NEP” value (NL1; fold lower for NL1 than NEP) was 4- to 5 fold and the Km (NL1; substrate of soluble NL-1, isotope-dilution method) was 18 µM. For the same substance, the “activity of soluble NL-3 on the substrate” value (soluble form of NL-3) was “No activity”.
